Measurements as given in the supplement of paper PMC5998384.

Key:
HeLa Kyoto [1] = assay: solubility change mitosis vs G1/S (difference of NP-40 vs SDS log2 ratios) (log2 ratio difference); higher = more soluble in mitosis
HeLa Kyoto [2] = assay: melting temperature (median over replicates), in situ; higher = more thermally stable
HeLa Kyoto [3] = assay: thermal stability score vs G1/S (z-score of summed log2 fold changes over temperatures); higher = more thermally stable than in G1/S
HeLa Kyoto [4] = assay: solubility in G1/S (NP-40 vs SDS abundance) (log2 ratio); higher = more soluble; details: cell cycle stage: G1/S
[5] = cell cycle stage: early G1 (4.5 h after nocodazole release)
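For melting temperature (median over replicates), in situ in this document: HeLa Kyoto cells synchronized by double thymidine or nocodazole block, proteins quantified by TMT10plex mass spectrometry, three independent biological replicates.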
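For solubility change mitosis vs G1/S (difference of NP-40 vs SDS log2 ratios) in this document: synchronized HeLa Kyoto cells (double thymidine block for G1/S, nocodazole release for mitosis), protein amounts in NP-40 versus SDS lysates quantified by mass spectrometry, three biological replicates.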
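For solubility in G1/S (NP-40 vs SDS abundance) in this document: HeLa Kyoto cells arrested at G1/S by double thymidine block, proteins quantified by TMT10plex mass spectrometry in mild NP-40 versus SDS extracts, three biological replicates.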
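For thermal stability score vs G1/S (z-score of summed log2 fold changes over temperatures) in this document: synchronized HeLa Kyoto cells, proteins quantified by TMT10plex mass spectrometry, three biological replicates, mitosis taken 0.5 h after nocodazole release, G1/S directly after double thymidine block.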

MVFLPLKWSLATMSFLLSSLLALLTVSTPSWCQSTEASPKRSDGTPFPWNKIRLPEYVIPVHYDLLIHANLTTLTFWGTTKVEITASQPTSTIILHSHHLQISRATLRKGAGERLSEEPLQVLEHPRQEQIALLAPEPLLVGLPYTVVIHYAGNLSETFHGFYKSTYRTKEGELRILASTQFEPTAARMAFPCFDEPAFKASFSIKIRREPRHLAISNMPLVKSVTVAEGLIEDHFDVTVKMSTYLVAFIISDFESVSKITKSGVKVSVYAVPDKINQADYALDAAVTLLEFYEDYFSIPYPLPKQDLAAIPDFQSGAMENWGLTTYRESALLFDAEKSSASSKLGITMTVAHELAHQWFGNLVTMEWWNDLWLNEGFAKFMEFVSVSVTHPELKVGDYFFGKCFDAMEVDALNSSHPVSTPVENPAQIREMFDDVSYDKGACILNMLREYLSADAFKSGIVQYLQKHSYKNTKNEDLWDSMASICPTDGVKGMDGFCSRSQHSSSSSHWHQEGVDVKTMMNTWTLQKGFPLITITVRGRNVHMKQEHYMKGSDGAPDTGYLWHVPLTFITSKSDMVHRFLLKTKTDVLILPEEVEWIKFNVGMNGYYIVHYEDDGWDSLTGLLKGTHTAVSSNDRASLINNAFQLVSIGKLSIEKALDLSLYLKHETEIMPVFQGLNELIPMYKLMEKRDMNEVETQFKAFLIRLLRDLIDKQTWTDEGSVSERMLRSQLLLLACVHNYQPCVQRAEGYFRKWKESNGNLSLPVDVTLAVFAVGAQSTEGWDFLYSKYQFSLSSTEKSQIEFALCRTQNKEKLQWLLDESFKGDKIKTQEFPQILTLIGRNPVGYPLAWQFLRKNWNKLVQKFELGSSSIAHMVMGTTNQFSTRTRLEEVKGFFSSLKENGSQLRCVQQTIETIEENIGWMDKNFDKIRVWLQSEKLERM [ERAP1]
solubility change mitosis (log2) (HeLa Kyoto [1]): -0.172 | melting temperature (HeLa Kyoto [2]; cell cycle stage: G1/S): 53.9 °C | melting temperature (HeLa Kyoto [2]; cell cycle stage: mitosis): 54.4 °C | thermal stability score (HeLa Kyoto [3]; [5]): 3.59 | thermal stability score (HeLa Kyoto [3]; cell cycle stage: mitosis): 5.54 | solubility in G1/S (log2) (HeLa Kyoto [4]): 0.0916

DIDO1
solubility change mitosis (log2) (HeLa Kyoto [1]): 0.231 | melting temperature (HeLa Kyoto [2]; cell cycle stage: G1/S): 49.1 °C | melting temperature (HeLa Kyoto [2]; cell cycle stage: mitosis): 49.8 °C | thermal stability score (HeLa Kyoto [3]; [5]): 0.743 | thermal stability score (HeLa Kyoto [3]; cell cycle stage: mitosis): 4.5 | solubility in G1/S (log2) (HeLa Kyoto [4]): -0.458

MASPSRRLQTKPVITCFKSVLLIYTFIFWITGVILLAVGIWGKVSLENYFSLLNEKATNVPFVLIATGTVIILLGTFGCFATCRASAWMLKLYAMFLTLVFLVELVAAIVGFVFRHEIKNSFKNNYEKALKQYNSTGDYRSHAVDKIQNTLHCCGVTDYRDWTDTNYYSEKGFPKSCCKLEDCTPQRDADKVNNEGCFIKVMTIIESEMGVVAGISFGVACFQLIGIFLAYCLSRAITNNQYEIV [TSPAN6]
solubility change mitosis (log2) (HeLa Kyoto [1]): 2.55e-05 | melting temperature (HeLa Kyoto [2]; cell cycle stage: G1/S): 58.9 °C | melting temperature (HeLa Kyoto [2]; cell cycle stage: mitosis): 55.8 °C | thermal stability score (HeLa Kyoto [3]; [5]): 0.413 | thermal stability score (HeLa Kyoto [3]; cell cycle stage: mitosis): -2.28 | solubility in G1/S (log2) (HeLa Kyoto [4]): -0.201

MGRRSTSSTKSGKFMNPTDQARKEARKRELKKNKKQRMMVRAAVLKMKDPKQIIRDMEKLDEMEFNPVQQPQLNEKVLKDKRKKLRETFERILRLYEKENPDIYKELRKLEVEYEQKRAQLSQYFDAVKNAQHVEVESIPLPDMPHAPSNILIQDIPLPGAQPPSILKKTSAYGPPTRAVSILPLLGHGVPRLPPGRKPPGPPPGPPPPQVVQMYGRKVGFALDLPPRRRDEDMLYSPELAQRGHDDDVSSTSEDDGYPEDMDQDKHDDSTDDSDTDKSDGESDGDEFVHRDNGERDNNEEKKSGLSVRFADMPGKSRKKKKNMKELTPLQAMMLRMAGQEIPEEGREVEEFSEDDDEDDSDDSEAEKQSQKQHKEESHSDGTSTASSQQQAPPQSVPPSQIQAPPMPGPPPLGPPPAPPLRPPGPPTGLPPGPPPGAPPFLRPPGMPGLRGPLPRLLPPGPPPGRPPGPPPGPPPGLPPGPPPRGPPPRLPPPAPPGIPPPRPGMMRPPLVPPLGPAPPGLFPPAPLPNPGVLSAPPNLIQRPKADDTSAATIEKKATATISAKPQITNPKAEITRFVPTALRVRRENKGATAAPQRKSEDDSAVPLAKAAPKSGPSVPVSVQTKDDVYEAFMKEMEGLL [WBP11]
solubility change mitosis (log2) (HeLa Kyoto [1]): 0.186 | melting temperature (HeLa Kyoto [2]; cell cycle stage: G1/S): 55.4 °C | melting temperature (HeLa Kyoto [2]; cell cycle stage: mitosis): 53.8 °C | thermal stability score (HeLa Kyoto [3]; [5]): -1.77 | thermal stability score (HeLa Kyoto [3]; cell cycle stage: mitosis): -3.87 | solubility in G1/S (log2) (HeLa Kyoto [4]): 0.135

EIF4H
solubility change mitosis (log2) (HeLa Kyoto [1]): 0.16 | melting temperature (HeLa Kyoto [2]; cell cycle stage: G1/S): 51.3 °C | melting temperature (HeLa Kyoto [2]; cell cycle stage: mitosis): 51.9 °C | thermal stability score (HeLa Kyoto [3]; [5]): -1.37 | thermal stability score (HeLa Kyoto [3]; cell cycle stage: mitosis): -1.91 | solubility in G1/S (log2) (HeLa Kyoto [4]): 0.374

LAMC1
solubility change mitosis (log2) (HeLa Kyoto [1]): -0.0329 | melting temperature (HeLa Kyoto [2]; cell cycle stage: G1/S): 53.5 °C | melting temperature (HeLa Kyoto [2]; cell cycle stage: mitosis): 53.9 °C | thermal stability score (HeLa Kyoto [3]; [5]): 2.27 | thermal stability score (HeLa Kyoto [3]; cell cycle stage: mitosis): 3.77 | solubility in G1/S (log2) (HeLa Kyoto [4]): -0.0818

NUP210
solubility change mitosis (log2) (HeLa Kyoto [1]): 0.0421 | melting temperature (HeLa Kyoto [2]; cell cycle stage: G1/S): 54.3 °C | melting temperature (HeLa Kyoto [2]; cell cycle stage: mitosis): 53.7 °C | thermal stability score (HeLa Kyoto [3]; [5]): 6.11 | thermal stability score (HeLa Kyoto [3]; cell cycle stage: mitosis): 9.9 | solubility in G1/S (log2) (HeLa Kyoto [4]): -0.0147
